The source of these data is patent US10398755B2, “Clusterin pharmaceuticals and treatment methods using the same” (UNIVERSITY OF SOUTHERN CALIFORNIA, priority 2009, dated 2019).

In experiment [1] the target is T1, catalytic domain of human MMP-9 (residue 112-445) (Homo sapiens, UniProt P14780).
T1 construct: The recombinant catalytic domain of human MMP-9 (residue 112-445) was purchased from ProtEra; purchased ProtEra
Put plainly: MMP inhibition assay (FRET peptide substrate), recombinant MMP-9 catalytic domain. The note with it: CLU 50 μg/ml (0.63 μM), RT 0.3 h. In kind it is biochemical. How it is done: Recombinant MMP-9 catalytic domain (A) or APMA-activated MMP-7 (B) was incubated with PBS, CLU (50 μg/ml or 0.63 μM), SB3-CT (2 μM), or BSA (50 μg/ml), and MMP FRET substrate at RT for 0.3 h. RFU in PBS samples was considered 100%. Each reaction was performed in triplicate. Standard errors were depicted as a bar in each graph. MMPs were mixed with CLD in TSCB buffer, 50 mM Tris-HCI, pH, 7.5, 150 mM NaCl, 5 mM CaCl2, 0.002% Brij35 (or otherwise indicated concentration) 30 min prior to substrate addition, and incubated for 3 h at RT in the presence or absence of 0.02 mM p-aminophenylmercuric acetate (APMA). MMP activity was measured using a 5-FAM/QXL520 fluorescence resonance energy transfer (FRET) peptide as a substrate (EXlEm=490 nm/520 nm) (AnaSpec, Fremont, Calif.), according to the manufacturer's protocol. Relative fluorescence unit (RFU) was obtained by subtracting the values of APMA- or enzyme-omitted reactions from those of test samples, and then considering the fluorescence unit of a PBS (vehicle) sample as 100%. Enzyme reactions were performed in black 96-well plate, containing combinations of 10 ng, 5 ng, 5 ng, 10 ng, 2.5 μg, 2.5 μg of MMP-2, MMP-7, catalytic domain of MMP-9, MMP-9, CCLU, and/or BSA, respectively, in 50 μl reaction volume. As MMP substrates (0.4 μM), 520 MMP FRET substrate […] […] Fluorescence was monitored using a Victor^3TM V multilabel counter (PerkinElmer). […]

Experiment [2] has as its target T2, HA-tagged MMP-9 (Mus musculus, UniProt P41245).
T2 construct: carrying the mouse full length cDNA of Myc-tagged CLU (CLU) or HA-tagged MMP-9 (MMP-9) were transfected; expressed in transfected cells; host or cells: HEK293
Put plainly: Immunoprecipitation assay in co-transfected HEK293 cells. The format is cell-based. How it is done: (A) pcDNA 3.1 (+) expression vectors carrying the mouse full length cDNA of Myc-tagged CLU (CLU) or HA-tagged MMP-9 (MMP-9) were transfected, alone (CLU or MMP-9) or combined (CLU+MMP-9), into HEK293 cells. Using the whole cell lysates of the transfected cells, immunoprecipitation (IP) with anti-HA antibody was performed to pull down MMP-9, and then the eluted samples were subjected to immunoblotting (denaturing 4-15% gradient SDS/PAGE gel) (IB) using anti-Myc antibody to detect CLU. The bands indicated by arrows are consistent to the forms of CLU undergoing intracellular processing. in, whole cell lysate used as input; IP, immunoprecipitated sample; Unc, Uncleaved CLU protein; β, β subunit of CLU. (B) Confocal microscopy of MMP-9 and CLU in HCLE cells. Nuclei were stained with DAPI, MMP-9 was detected by rhodamine-conjuated antibody, and CLU by FITC-conjugated antibody. In control, primary antibodies were omitted. The images were taken at 400× magnification. […]
Next, we tested whether MMP-9/CLU interaction also occurs in vivo. […] We also recognized that a stronger band of ˜50 KDa, compared with the other two IP lanes, was detected in co-transfected IP lane, which might be a non-glycosylated full-length form of CLU. […]

T2 sequence (P41245 108-730): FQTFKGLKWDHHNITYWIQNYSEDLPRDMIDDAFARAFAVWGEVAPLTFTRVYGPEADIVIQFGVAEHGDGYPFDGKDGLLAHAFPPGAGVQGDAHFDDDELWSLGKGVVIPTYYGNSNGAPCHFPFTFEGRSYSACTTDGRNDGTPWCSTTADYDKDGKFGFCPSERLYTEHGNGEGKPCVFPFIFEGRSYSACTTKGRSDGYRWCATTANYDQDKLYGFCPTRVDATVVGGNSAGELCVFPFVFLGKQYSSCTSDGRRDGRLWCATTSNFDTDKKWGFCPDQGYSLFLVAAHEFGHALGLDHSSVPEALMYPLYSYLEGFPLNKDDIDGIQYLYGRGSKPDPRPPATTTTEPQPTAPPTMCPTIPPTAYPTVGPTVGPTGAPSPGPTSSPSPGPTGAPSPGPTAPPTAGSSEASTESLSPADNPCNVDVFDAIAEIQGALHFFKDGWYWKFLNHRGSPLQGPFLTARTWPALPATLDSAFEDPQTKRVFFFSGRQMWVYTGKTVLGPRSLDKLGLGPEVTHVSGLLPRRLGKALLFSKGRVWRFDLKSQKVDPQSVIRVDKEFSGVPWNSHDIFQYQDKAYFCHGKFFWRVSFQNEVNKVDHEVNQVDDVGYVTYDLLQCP
T1 sequence (P14780 112-445): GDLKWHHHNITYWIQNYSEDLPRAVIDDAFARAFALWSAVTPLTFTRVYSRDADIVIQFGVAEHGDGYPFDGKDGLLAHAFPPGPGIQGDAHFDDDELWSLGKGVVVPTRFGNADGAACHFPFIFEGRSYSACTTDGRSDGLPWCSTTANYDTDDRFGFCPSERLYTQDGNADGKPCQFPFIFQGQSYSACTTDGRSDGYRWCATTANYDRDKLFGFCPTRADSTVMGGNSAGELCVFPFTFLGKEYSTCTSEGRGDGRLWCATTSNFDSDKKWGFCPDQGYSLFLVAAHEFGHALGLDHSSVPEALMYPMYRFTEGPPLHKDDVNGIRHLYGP

B1: CLU: secreted disulfide-linked heterodimeric glycoprotein (70-80 KD); assays used recombinant mouse CLU with C-terminal (His)6 (protein, UniProt Q06890 22-448, looked up)
Clusterin: EQEVSDNELQELSTQGSRYINKEIQNAVQGVKHIKTLIEKTNAERKSLLNSLEEAKKKKEDALEDTRDSEMKLKAFPEVCNETMMALWEECKPCLKHTCMKFYARVCRSGSGLVGQQLEEFLNQSSPFYFWMNGDRIDSLLESDRQQSQVLDAMQDSFARASGIIDTLFQDRFFARELHDPHYFSPIGFPHKRPHFLYPKSRLVRSLMSPSHYGPPSFHNMFQPFFEMIHQAQQAMDVQLHSPAFQFPDVDFLREGEDDRTVCKEIRRNSTGCLKMKGQCEKCQEILSVDCSTNNPAQANLRQELNDSLQVAERLTEQYKELLQSFQSKMLNTSSLLEQLNDQFNWVSQLANLTQGEDKYYLRVSTVTTHSSDSEVPSRVTEVVVKLFDSDPITVVLPEEVSKDNPKFMDTVAEKALQEYRRKSRAE
modifications: C-terminal His6 tag
Consider B1, for which, in experiment [1], the “inhibition of MMP-9 catalytic domain activity” value came to 59%. Further, the “co-immunoprecipitation of Myc-tagged CLU with HA-tagged MMP-9” value in experiment [2] is “interact in vivo even before processing of the proteins”.
